Measurements from paper PMC6669903 (Neuron, 2019).

System: Tiam1/CaMKII complex
Type: cell-based
Conditions: bath application (AP5, KN-93) or cotransfection (CaMKIIN)

B1: CaMKIIN: endogenous CaMKII inhibitor protein, cotransfected (protein)
chain: MSEILPYGEDKMGRFGADPEGSDLSFSCRLQDTNSFFAGNQAKRPPKLGQIGRAKRVVIEDDRIDDVLKGMGEKPPSGV
effect on Tiam1/CaMKII interaction after sLTP induction: blocked
